Test results taken from IntAct's records for PubMed 12802020.

B1: Tumor susceptibility gene 101 protein (Homo sapiens), Q99816 (parent)
chain: MAVSESQLKKMVSKYKYRDLTVRETVNVITLYKDLKPVLDSYVFNDGSSRELMNLTGTIPVPYRGNTYNIPICLWLLDTYPYNPPICFVKPTSSMTIKTGKHVDANGKIYLPYLHEWKHPQSDLLGLIQVMIVVFGDEPPVFSRPISASYPPYQATGPPNTSYMPGMPGGISPYPSGYPPNPSGYPGCPYPPGGPYPATTSSQYPSQPPVTTVGPSRDGTISEDTIRASLISAVSDKLRWRMKEEMDRAQAELNALKRTEEDLKKGHQKLEEMVTRLDQEVAEVDKNIELLKKKDEELSSALEKMENQSENNDIDEVIIPTAPLYKQILNLYAEENAIEDTIFYLGEALRRGVIDLDVFLKHVRLLSRKQFQLRALMQKARKTAGLSDLY

Variants of: B1
Settings: with hgs_human HGS

effect of a mutation on the interaction	Variant
decreasing interaction	MAVSESQLKKMVSKYKYRDLTVRETVNVITLYKDLKPVLDSYVFNDGSSRELMNLTGTIPVPARGNTYNIPICLWLLDTYPYNPPICFVKPTSSMTIKTGKHVDANGKIYLPYLHEWKHPQSDLLGLIQVMIVVFGDEPPVFSRPISASYPPYQATGPPNTSYMPGMPGGISPYPSGYPPNPSGYPGCPYPPGGPYPATTSSQYPSQPPVTTVGPSRDGTISEDTIRASLISAVSDKLRWRMKEEMDRAQAELNALKRTEEDLKKGHQKLEEMVTRLDQEVAEVDKNIELLKKKDEELSSALEKMENQSENNDIDEVIIPTAPLYKQILNLYAEENAIEDTIFYLGEALRRGVIDLDVFLKHVRLLSRKQFQLRALMQKARKTAGLSDLY [Y63A]
decreasing interaction strength	MAVSESQLKKMVSKYKYRDLTVRETVNVITLYKDLKPVLDSYVFADGSSRELMNLTGTIPVPYRGNTYNIPICLWLLDTYPYNPPICFVKPTSSMTIKTGKHVDANGKIYLPYLHEWKHPQSDLLGLIQVMIVVFGDEPPVFSRPISASYPPYQATGPPNTSYMPGMPGGISPYPSGYPPNPSGYPGCPYPPGGPYPATTSSQYPSQPPVTTVGPSRDGTISEDTIRASLISAVSDKLRWRMKEEMDRAQAELNALKRTEEDLKKGHQKLEEMVTRLDQEVAEVDKNIELLKKKDEELSSALEKMENQSENNDIDEVIIPTAPLYKQILNLYAEENAIEDTIFYLGEALRRGVIDLDVFLKHVRLLSRKQFQLRALMQKARKTAGLSDLY [N45A]
decreasing interaction strength	MAVSESQLKKMVSKYKYRDLTVRETVNVITLYKDLKPVLDSYVFNDGSSRELMNLTGTIPVPYRGNTYNIPICLWLLDTYPYNPPICFVKPTSSATIKTGKHVDANGKIYLPYLHEWKHPQSDLLGLIQVMIVVFGDEPPVFSRPISASYPPYQATGPPNTSYMPGMPGGISPYPSGYPPNPSGYPGCPYPPGGPYPATTSSQYPSQPPVTTVGPSRDGTISEDTIRASLISAVSDKLRWRMKEEMDRAQAELNALKRTEEDLKKGHQKLEEMVTRLDQEVAEVDKNIELLKKKDEELSSALEKMENQSENNDIDEVIIPTAPLYKQILNLYAEENAIEDTIFYLGEALRRGVIDLDVFLKHVRLLSRKQFQLRALMQKARKTAGLSDLY [M95A]
decreasing interaction strength	MAVSESQLKKMVSKYKYRDLTVRETVNVITLYKDLKPVLDSYVFNDGSSRELMNLTGTIPVPYRGNTYNIPICLWLLDTYPYNPPICFAKPTSSMTIKTGKHVDANGKIYLPYLHEWKHPQSDLLGLIQVMIVVFGDEPPVFSRPISASYPPYQATGPPNTSYMPGMPGGISPYPSGYPPNPSGYPGCPYPPGGPYPATTSSQYPSQPPVTTVGPSRDGTISEDTIRASLISAVSDKLRWRMKEEMDRAQAELNALKRTEEDLKKGHQKLEEMVTRLDQEVAEVDKNIELLKKKDEELSSALEKMENQSENNDIDEVIIPTAPLYKQILNLYAEENAIEDTIFYLGEALRRGVIDLDVFLKHVRLLSRKQFQLRALMQKARKTAGLSDLY [V89A]
increasing interaction strength	MAVSESQLKKMVSKYKYRDLTVRETVNVITLYKDLKPVLDSYVFNDGSSRELMNLTGTIPVPYRGNTYNIPICLWLLDTYPYNPPICFVKPTSSMTIKTGKHVDANGKIYLPYLHEWKHPQSDLLGLIQVMIVVFGDEPPVFSRPISASYPPYQATGPPNTSYMPGMPGGISPYPSGYPPNPSGYPGCPYPPGGPYPATTSSQYPSQPPVTTVGPSRDGTISEDTIRASLISAVSDKLRWRMKEEMDRAQAELNALKRTEEDLKKGHQKLEEMVTRLDQEVAEVDKNIELLKKKDEELSSALEKMENQSENNDIDEVIILTALLYKQILNLYAEENAIEDTIFYLGEALRRGVIDLDVFLKHVRLLSRKQFQLRALMQKARKTAGLSDLY [P320L;P323L]
